This is an account of results in publication PMC4558565.

Values joined by “and” are separate entries in the source; they are usually repeats but may differ in a detail not shown here. Equal entries are not always repeated.

In assay [1] the target is bZIP1-VENUSN (m29) signal relative to bZIP11-CFPN (m30) signal. Nature of the assay: multi-color BiFC in N. tabacum leaves, confocal microscopy. Particulars: co-transformed with mCherry-tagged AKIN10; 115-118 nuclei; value is the median of the box plot; parent: est. 2.4; read off a plot.
Assay [2] addresses bZIP63 in which S29 or all three serines were mutated to alanine. Kind of assay: two-hybrid; protoplast two-hybrid (P2H) in Arabidopsis leaf protoplasts; GAL4-AD and GAL4-BD fusions, GAL-UAS4::GUS reporter normalised to 35S::NAN; without and with co-transformation of AKIN10; 16 hr.

“bZIP63 (split-CFP BiFC fusion) (from UniProt B9DGI8) S29A; S294A; S300A”: the other: VENUS/CFP (norm.) in assay [1] is 1.

B1: bZIP11 (protoplast two-hybrid fusion) (natural protein)
chain: MESSSSGTTSSTIQTSSGSEESLMEQRKRKRMLSNRESARRSRMKKQKLLDDLTAQVNHLKKENTEIVTSVSITTQHYLTVEAENSVLRAQLDELNHRLQSLNDIIEFLDSSNNNNNNNMGMCSNPLVGLECDDFFVNQMNMSYIMNQPLMASSDALMY
Regarding B1, the % of the signal with wt bZIP63 in assay [2] was 30% and 40%.

B2: bZIP63 (protoplast two-hybrid fusion) (natural protein)
chain: MEKVFSDEEISGNHHWSVNGMTSLNRSASEWAFNRFIQESSAAADDGESTTACGVSVSSPPNVPVDSEEYRAFLKSKLNLACAAVAMKRGTFIKPQDTSGRSDNGGANESEQASLASSKATPMMSSAITSGSELSGDEEEADGETNMNPTNVKRVKRMLSNRESARRSRRRKQAHLSELETQVSQLRVENSKLMKGLTDVTQTFNDASVENRVLKANIETLRAKVKMAEETVKRLTGFNPMFHNMPQIVSTVSLPSETSNSPDTTSSQVTTPEIISSGNKGKALIGCKMNRTASMRRVESLEHLQKRIRSVGDQ
Turning to B2, the % of the signal with wt bZIP63 in assay [2] is 30% and 40%.
